T1: MglB (MglB-2 construct, 6xHis tag cleaved by TEV protease) (M. xanthus), Q1DB03
T1 chain: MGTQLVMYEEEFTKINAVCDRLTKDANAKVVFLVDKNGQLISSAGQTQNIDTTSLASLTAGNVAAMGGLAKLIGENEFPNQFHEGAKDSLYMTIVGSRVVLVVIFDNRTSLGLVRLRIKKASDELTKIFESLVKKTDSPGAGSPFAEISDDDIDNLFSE


Tests used:
[1] = biological target: T1, MglB (MglB-2 construct, 6xHis tag …); test: SEC-MALS; MglB at 3 mg/mL in 20 mM Tris pH 7.5, 50 mM NaCl, 10 mM MgCl2; Superdex 75 10/300 GL; details: remark: other sources report otherwise
[2] = biological target: T1, MglB (MglB-2 construct, 6xHis tag …); test: crystal structure; MglA-GTPγS/MglB complex; equimolar MglA and MglB with 20x GTPγS, purified by SEC; crystals in 0.2 M HEPES pH 7, 16% PEG 4000; 2.8 Å; details: remark: other sources report otherwise
[3] = biological target: the molecule itself; test: crystal structure; unbound MglB (MglB-1), form 2 crystals in 0.1 M MES pH 6, 0.15 M ammonium sulfate, 15% PEG 4000; 20 molecules in the asymmetric unit; 2.39 Å

stoichiometry N [1]	stoichiometry N [2]	Binder	stoichiometry N [3]
2	2	MglB (MglB-2 construct, 6xHis tag cleaved by TEV protease), Q1DB03 1-159 (natural protein) MGTQLVMYEEEFTKINAVCDRLTKDANAKVVFLVDKNGQLISSAGQTQNIDTTSLASLTAGNVAAMGGLAKLIGENEFPNQFHEGAKDSLYMTIVGSRVVLVVIFDNRTSLGLVRLRIKKASDELTKIFESLVKKTDSPGAGSPFAEISDDDIDNLFSE	
		MglB (MglB-1 construct, 34-residue N-terminal tag) (natural protein, M. xanthus, MglB, GAP of MglA, Myxococcus xanthus; residues 133-165 not visible in the crystal; No cleavage of the tag is described) GTQLVMYEEEFTKINAVCDRLTKDANAKVVFLVDKNGQLISSAGQTQNIDTTSLASLTAGNVAAMGGLAKLIGENEFPNQFHEGAKDSLYMTIVGSRVVLVVIFDNRTSLGLVRLRIKKASDELTKIFESLVKKTDSPGAGSPFAEISDDDIDNLFSE	4

From paper PMC6876712, “MglA functions as a three-state GTPase to control movement reversals of Myxococcus xanthus” (Nature Communications, 2019)
